In doi:10.1101/411793:

System: DosR (phosphorylated) (Mycobacterium tuberculosis)
Test: EMSA

With hspX promoter probe the binding signal (fold inhibition of binding vs DMSO) was 22.
